Experimental data: patent US20040002450A1, “Y17 - isolated molecules comprising epitopes containing sulfated moieties, antibodies to such epitopes, and uses thereof” (priority 2000, published 2004)

B1: CONY1: scFv derived from Y1 scFv in which the myc tag is replaced by lysine, alanine, lysine (KAK); SEQ ID NO: 204 (protein, listed as Homo sapiens)
scFv: MKYLLPTAAAGLLLLAAQPAMAEVQLVESGGGVVRPGGSLRLSCAASGFTFDDYGMSWVRQAPGKGLEWVSGINWNGGSTGYADSVKGRFTISRDNAKNSLYLQMNSLRAEDTAVYYCARMRAPVIWGQGTLVTVSRGGGGSGGGGSGGGGSSELTQDPAVSVALGQTVRITCQGDSLRSYYASWYQQKPGQAPVLVIYGKNNRPSGIPDRFSGSSSGNTASLTITGAQAEDEADYYCNSRDSSGNHVVFGGGTKLTVLGAAAKAK
B2: S-S Y1 dimer: Y1 sulfide bridge dimer compared with CONY1 and Y1-IgG in the radioreceptor assay (protein)
scFv: MEVQLVESGGGVVRPGGSLRLSCAASGFTFDDYGMSWVRQAPGKGLEWVSGINWNGGSTGYADSVKGRFTISRDNAKNSLYLQMNSLRAEDTAVYYCARMRAPVIWGQGTLVTVSRGGGGSGGGGSGGGGSSELTQDPAVSVALGQTVRITCQGDSLRSYYASWYQQKPGQAPVLVIYGKNNRPSGIPDRFSGSSSGNTASLTITGAQAEDEADYYCNSRDSSGNHVVFGGGTKLTVLGGGGCKAK

Experiments:
[1] = system: KG-1 cells; experiment: AML KG-1 model in SCID/NOD mice; format: in vivo
Description: The in vivo mouse model for human AML uses SCID/NOD mice (Jackson Laboratories) inoculated with KG-1 cells derived from a human AML cell line.
In a first experiment, NOD/SCID mice were pretreated with 100 mg/kg CYTOXAN®. Four days post CYTOXANT injection, KG-1 cells were injected intravenously into the tail vein of six groups of mice. (Table N, Groups 2 and 5-9). One group of mice (Table N, Group 1) was injected with PBS alone (control).
Beginning 19 days post KG-1 injection mice were treated with: CONY1, Doxorubicin, CONY1-Doxorubicin conjugate, or Mylotarg®. (Mylotarg® is a monoclonal antibody (anti CD33) conjugated chemically to calcheamicin recently approved by the FDA for treatment of AML patients age 60 and over in a first relapse.) Mice were treated once or three times per week for three weeks. […]
Mice were sacrificed from 60 to 65 days post cell injection. Bone marrow and blood samples were analyzed by flow cytometry using mouse anti human CD34-FITC (IQP 144F) (or anti CD44-FITC (MCA89F, Serotec)) and Y1-Biotin/SAV-PE. […]
An additional experiment was performed in which SCID-NOD mice were i.v. injected with 3×10^4 MOLT-4 cells/mouse 5 days post treatment with cyclophosphamide. […] Bone marrow was extracted and analyzed by FACS analysis using a commercially available antiCD44 antibody for the detection of MOLT-4 cells in the mice bone marrow cell population.

[2] = target: T1, GPIb (glycocalicin) derived from platelets (Homo sapiens, UniProt P07359); experiment: ELISA to GC (glycocalicin), monomer versus dimer; format: binding
T1 construct: glycocalicin (soluble, extracellular fragment of GPIbα); from tissue; host or cells: human platelets
Description: An ELISA assay was performed to ascertain the differences in binding between the monomer (the Y1 scFv-also known as Y1-kak) and the dimer Y1-cys-kak (the cysteine dimer) for antigen GPIb (glycocalicin) derived from platelets. A polyclonal anti single chain antibody and/or a novel polyclonal anti-VL (derived from rabbits) and anti-rabbit HRP, were used to detect the binding to GPIb. […] For instance, to reach 0.8 OD units 12.8 μg/ml of monomer was used compared to only 0.1 μg/ml of dimer.
100 ml of purified glycocalicin was incubated in a 96 flat well maxisorp plates, overnight at 4 degrees celsius. The plate was washed with PBST (PBS+0.05% tween) 3 times, then […] of PBST-milk (PBST+2% Non fat milk), for 1 hr at room temperature. The plate was washed with PBST, and the monomer or dimer (100 ml) was added in PBST-milk at different concentrations for 1 hr at room temp. Then the plate was washed and anti-VL polyclonal (derived from immunized rabbits with VL derived from Y1) (1:100 diluted in PBST-milk) was added for an hour. The plate was washed and anti-rabbit HRP was added for an additional hour. The plate was washed 5 times and 100 μl TMB substrate was added for approximately 15 minutes then 100 μl of 0.5H2SO4 was added to stop the reaction. The optical density of the plate was measured at 450 nm in an ELISA reader.

[3] = system: MOLT-4 cells; experiment: T-ALL (MOLT4) model in SCID mice; format: in vivo
Description: The in vivo mouse model for T-ALL uses SCID mice (Jackson Laboratories) injected with MOLT4 cells derived from a T cell leukemia patient.
In one experiment, SCID mice were pretreated with 100 mg/kg Cytoxan (CTX, Cyclophosphamid for injection, Mead Johnson). Eleven days after CTX injection, MOLT-4 cells were injected intravenously into the tail vein. Control mice were injected with PBS alone. One week post-MOLT-4 injection mice were injected with CONY1-Doxorubicin, which is a conjugate between scFv CON Y1 polypeptide, having KAK amino acid residues at its carboxy end and doxorubicin via a short organic linker; CONY1, which is a scFv antibody fragment derived from Y1 scFv in which the DNA sequences encoding the myc tag of Y1 were deleted and replaced with a DNA sequence encoding the amino acids lysine, alanine, lysine (KAK); or free Doxorubicin. The mice were injected three times per week for three weeks. […] (Table M).
Mice started to die 32 days post cell inoculation, and the surviving mice were sacrificed at this time. Bone marrow cells were analyzed by flow cytometry using anti-human CD44-FITC and Y1-Biotin/SAV-PE. Blood samples from several animals were monitored for platelet and white blood cell count. Livers were weighted and examined for appearance. Other organs were also examined for tumor appearance.
In a second experiment, SCID mice were i.v. injected with 2×10^7 MOLT-4 cells/mouse, 5 days post treatment with cyclophosphamide. Anti-cancer agents or PBS (negative control animals) were injected i.v. three times/week from day 5 post MOLT-4 cells injection and onward. On day 35, blood was drawn from the animals, the animals were sacrificed, and their livers were excised and weighed. In the untreated, PBS-treated MOLT-4 cell-bearing animals, the liver presented with a very massive tumor growth, and its size was increased 2-3-fold relative to PBS control uninfected animals. In this experiment, there were five treatment groups:
In parallel, portions of liver tissue were taken for histology and cell harvesting for FACS analysis. The survival rate of another group of treated animals was recorded relative to that of control untreated mice.
In a third experiment, using the identical SCID/MOLT-4 protocol, there were 6 groups: […]

[4] = mouse, in vivo
Description: The radioactive protein was then admixed with unlabeled CONY-1 to yield a solution of 75 μg/ml CONY-1 containing 2.5×10^6 CPM/ml in saline.
Male Balb-C mice were pretreated by intraperitoneal injection of 0.5 ml/mouse of 0.9% NaI. After 2 hours, the mice were injected intravenously with 0.2 ml of the labeled CONY-1 solution, resulting in a ^125I-CONY-1 dose of 15 μg (5×10^5 CPM) per mouse.
At various times after injection, blood was collected over EDTA, mice were sacrificed, and tissues were excised. Samples and organs were taken at 5, 15, and 30 minutes and at 1, 2, 4, 8, and 24 hours after injection. Two to four mice were used per time point. Plasma was separated and either counted for gamma radioactivity or subjected to precipitation with trichloroacetic acid (TCA). After centrifugation, TCA precipitates were subjected to gamma radioactivity counting. Liver, lung, kidney, spleen, and bone marrow samples were weighed and counted for gamma radioactivity. Plasma TCA precipitated radioactivity was plotted against time, and a two-compartment kinetics model was fitted. Organ/tissue total and specific radioactivity values were calculated.

[5] = system: KG-1 cells; experiment: Radioreceptor binding assay with KG-1 cells; set-up: species or system human; details: 2 ng/tube 125I-Y1-IgG tracer
Description: The assay system involved the use of radioactive ligands that were prepared by iodination with ^125I using chloramine T on the Y1-IgG construct or the Bolton-Hunter (CONY1) reagent. The assay tubes contained 5×10^6 KG-1 cells per 0.2 ml and a labeled tracer with varying amounts of unlabeled competitor, in PBS+0.1% BSA, pH 7.4. After one hour incubation with agitation at 4° C., the cells were thoroughly washed with cold buffer and taken for radioactivity counting.
For the radio receptor binding assay (RRA), 2 ng/tube of ^125I-Y1-IgG was used, and competition was performed with each of the three molecules. […] A rough estimate of the affinity of the Y1-IgG in this experiment is 2×10^−8 M. The corresponding affinity of the dimer is, therefore, 4×10^−8 M.
In a second RRA using labeled CONYL, a 100 ng/tube of ^125I-Y1-IgG was used, and competition was performed with each of the three molecules. […] A rough estimate of the affinity of CONY 1 in this experiment is 10^−6M. The corresponding affinity of the dimer is, therefore, 5×10^−8 M.

Molecule | percentage of KG-1 cells in bone marrow (in words) ([1]; KG-1 cells incubated in vitro with scFv before injection (groups 3 and 4)) | development of the malignancy / prevalence of bone marrow cancer (in words) ([1]; additional experiment, day 60, CONY1 scFv 75 μg/mouse three times/week, Mylotarg 7 μg/mouse once a week) | concentration used to reach 0.8 OD units [2] [µg/mL] | liver weight versus free Doxorubicin-treated or untreated MOLT-4 mice ([3]; first experiment, three times per week for three weeks, sacrifice 32 days post inoculation) | survival ([3]; mice from three groups with continued treatment) | liver weights / tumor growth in the liver ([3]; second experiment, day 35, i.v. three times/week, scFv or conjugate 75 μg/mouse, Doxorubicin 0.1 mg/kg) | tumor growth (based on liver weights) ([3]; third experiment, scFv 75 μg/mouse, IgG 5 μg/mouse) | distribution between plasma and erythrocytes (in words) [4] | half-life of blood clearance, first compartment ([4]; iv) [h] | half-life of blood clearance, second compartment ([4]; iv) [h] | affinity relative to the full Y1 antibody [5]
B1 | significantly lower percentage | no effect | 12.8 | weighted significantly less | prolonged | markedly inhibited tumor growth in the liver | inhibited tumor growth | did not adhere to erythrocytes | 0.583 | 3.17 | 
B2 |  |  |  |  |  |  |  |  |  |  | twofold lower
